The supplement of paper PMC9112550, “Optimization of the antimicrobial peptide Bac7 by deep mutational scanning” (BMC Biology, 2022)

tested on: Escherichia coli TOP10; test: shrunken log2 fold change of peptide-encoding DNA abundance (4.5 h post-induction vs induction); higher = less antimicrobial activity (less host growth inhibition); settings: time post-induction: 4.5 h; library: site-saturation at positions 5, 18, 19, 20
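Also: peptides expressed intracellularly from a pBAD plasmid library in pooled LB shake-flask culture, induced with 0.3% L-arabinose, DNA abundance read by NGS, three biological replicates, DESeq2 with apeglm shrinkage.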

Sequence | shrunken log2 fold change
RRIRVRPPRLPRPRPRPVGQPRP | 0.0877
RRIRFRPPRLPRPRPRPVWKPRP | -0.0844
RRIRSRPPRLPRPRPRPTCYPRP | -0.0144
RRIRSRPPRLPRPRPRPALDPRP | 0.137
RRIRMRPPRLPRPRPRPWSLPRP | -0.385
RRIRNRPPRLPRPRPRPVQDPRP | -0.302
RRIRWRPPRLPRPRPRPPSCPRP | 0.0112
RRIRARPPRLPRPRPRPHDQPRP | 0.808
RRIRGRPPRLPRPRPRPMFSPRP | 0.147
RRIRHRPPRLPRPRPRPVRMPRP | 0.246
RRIRPRPPRLPRPRPRPFIKPRP | -0.926
RRIRWRPPRLPRPRPRPRYNPRP | -0.396
RRIRSRPPRLPRPRPRPQSLPRP | -0.232
RRIRGRPPRLPRPRPRPNAMPRP | 0.988
RRIRRRPPRLPRPRPRPTYMPRP | -0.242
RRIRLRPPRLPRPRPRPTGGPRP | 0.621
RRIRHRPPRLPRPRPRPICYPRP | -0.178
RRIRARPPRLPRPRPRPFSPPRP | -0.342
RRIRKRPPRLPRPRPRPDRGPRP | 0.0561
RRIRPRPPRLPRPRPRPYYDPRP | -0.745
RRIRWRPPRLPRPRPRPYDHPRP | -0.207
RRIRNRPPRLPRPRPRPHIQPRP | 2.34
RRIRWRPPRLPRPRPRPSGPPRP | 0.114
RRIRLRPPRLPRPRPRPKCIPRP | -0.9
RRIRVRPPRLPRPRPRPMTTPRP | 0.0377

Sequence | shrunken log2 fold change
RRIRLRPPRLPRPRPRPYMYPRP | -0.759
RRIRDRPPRLPRPRPRPKIAPRP | -0.0493
RRIRWRPPRLPRPRPRPCAAPRP | 1.32
RRIRARPPRLPRPRPRPDRQPRP | 0.0329
RRIRDRPPRLPRPRPRPTRYPRP | 0.317
RRIRMRPPRLPRPRPRPGLSPRP | 0.795
RRIRSRPPRLPRPRPRPIVGPRP | 0.0247
RRIRSRPPRLPRPRPRPIWYPRP | -0.373
RRIRIRPPRLPRPRPRPECDPRP | 0.0126
RRIRHRPPRLPRPRPRPDPKPRP | 0.0039
RRIRKRPPRLPRPRPRPNNRPRP | 0.0938
RRIRYRPPRLPRPRPRPKLHPRP | -0.431
RRIRHRPPRLPRPRPRPYFYPRP | -0.881
RRIRPRPPRLPRPRPRPCCQPRP | -0.516
RRIRLRPPRLPRPRPRPDTKPRP | -0.122
RRIRKRPPRLPRPRPRPSNMPRP | -0.327
RRIRQRPPRLPRPRPRPRMNPRP | -0.15
RRIRNRPPRLPRPRPRPFLIPRP | 0.117
RRIRNRPPRLPRPRPRPKRGPRP | 0.00668
RRIRNRPPRLPRPRPRPMLSPRP | 0.081
RRIRKRPPRLPRPRPRPHRLPRP | 0.164
RRIRTRPPRLPRPRPRPIWGPRP | -0.144
RRIRWRPPRLPRPRPRPAPLPRP | 0.512
RRIRRRPPRLPRPRPRPQKPPRP | -0.138
RRIRMRPPRLPRPRPRPSESPRP | -0.01

Sequence | shrunken log2 fold change
RRIRKRPPRLPRPRPRPWQQPRP | 0.608
RRIRTRPPRLPRPRPRPRMLPRP | 0.292
RRIRWRPPRLPRPRPRPDLCPRP | 0.777
RRIRPRPPRLPRPRPRPQWDPRP | -0.355
RRIRDRPPRLPRPRPRPVTYPRP | -0.0305
RRIRWRPPRLPRPRPRPSDLPRP | -0.175
RRIRCRPPRLPRPRPRPWEFPRP | 0.0363
RRIRPRPPRLPRPRPRPLQGPRP | 0.13
RRIRIRPPRLPRPRPRPFAAPRP | -0.258
RRIRNRPPRLPRPRPRPSAEPRP | 0.113
RRIRHRPPRLPRPRPRPGIHPRP | -0.2
RRIRVRPPRLPRPRPRPIFCPRP | 0.078
RRIRHRPPRLPRPRPRPAKGPRP | 0.0449
RRIRLRPPRLPRPRPRPYNKPRP | 1.41
RRIRCRPPRLPRPRPRPDILPRP | -0.0877
RRIRDRPPRLPRPRPRPKMHPRP | 0.159
RRIRARPPRLPRPRPRPWQHPRP | 0.0196
RRIRQRPPRLPRPRPRPWIWPRP | 0.231
RRIRVRPPRLPRPRPRPYVCPRP | -0.525
RRIRGRPPRLPRPRPRPWHRPRP | 0.0496
RRIRFRPPRLPRPRPRPIYHPRP | -0.701
RRIRFRPPRLPRPRPRPPAFPRP | 0.112
RRIRWRPPRLPRPRPRPMYYPRP | -0.32
RRIRTRPPRLPRPRPRPNMCPRP | 0.00985
RRIRIRPPRLPRPRPRPGLYPRP | -0.0503

Sequence | shrunken log2 fold change
RRIRDRPPRLPRPRPRPKPIPRP | 0.106
RRIRRRPPRLPRPRPRPNCDPRP | 0.186
RRIRNRPPRLPRPRPRPRWRPRP | 0.623
RRIRKRPPRLPRPRPRPMGPPRP | 0.339
RRIRYRPPRLPRPRPRPSILPRP | -1.25
RRIRNRPPRLPRPRPRPPWVPRP | -0.0522
RRIRNRPPRLPRPRPRPRHCPRP | 0.00979
RRIRIRPPRLPRPRPRPNGNPRP | -0.365
RRIRIRPPRLPRPRPRPAMDPRP | -0.218
RRIRVRPPRLPRPRPRPFVFPRP | -0.0359
RRIRARPPRLPRPRPRPFMLPRP | -0.0197
RRIRARPPRLPRPRPRPGYRPRP | -0.107
RRIRMRPPRLPRPRPRPTMEPRP | 0.868
RRIRPRPPRLPRPRPRPFSSPRP | -0.322
RRIRYRPPRLPRPRPRPKSFPRP | -0.0139
RRIRNRPPRLPRPRPRPHGLPRP | -0.257
RRIRTRPPRLPRPRPRPMGNPRP | -0.0115
RRIRQRPPRLPRPRPRPQQLPRP | -0.0824
RRIRNRPPRLPRPRPRPNQTPRP | -0.0303
RRIRCRPPRLPRPRPRPKNTPRP | -0.339
RRIRPRPPRLPRPRPRPLMVPRP | -0.0973
RRIRIRPPRLPRPRPRPKSRPRP | -0.108
RRIRARPPRLPRPRPRPAWHPRP | 0.159
RRIRHRPPRLPRPRPRPPHGPRP | 0.389
RRIRWRPPRLPRPRPRPIDWPRP | 0.45

Sequence | shrunken log2 fold change
RRIRWRPPRLPRPRPRPQNRPRP | 0.0839
RRIRIRPPRLPRPRPRPGNDPRP | -0.0662
RRIRQRPPRLPRPRPRPFMVPRP | -0.686
RRIRVRPPRLPRPRPRPAFDPRP | -0.339
RRIRQRPPRLPRPRPRPLTHPRP | 0.045
RRIRGRPPRLPRPRPRPAVDPRP | 0.896
RRIRVRPPRLPRPRPRPDLRPRP | -0.0613
RRIRLRPPRLPRPRPRPLQPPRP | 0.206
RRIRARPPRLPRPRPRPSIVPRP | -0.103
RRIRCRPPRLPRPRPRPWMNPRP | 0.0105
RRIRWRPPRLPRPRPRPCPIPRP | -0.204
RRIRGRPPRLPRPRPRPDNGPRP | -0.0263
RRIRARPPRLPRPRPRPYERPRP | 0.0697
RRIRYRPPRLPRPRPRPGKSPRP | 0.0131
RRIRIRPPRLPRPRPRPYPHPRP | -1.02
RRIRDRPPRLPRPRPRPYPPPRP | -0.426
RRIRTRPPRLPRPRPRPNDTPRP | -0.387
RRIRHRPPRLPRPRPRPFNGPRP | -0.118
RRIRPRPPRLPRPRPRPTTVPRP | 0.0207
RRIRHRPPRLPRPRPRPGLCPRP | 0.101
RRIRFRPPRLPRPRPRPSFDPRP | -0.62
RRIRWRPPRLPRPRPRPWMFPRP | 0.00732
RRIRKRPPRLPRPRPRPNHFPRP | -2.08
RRIRSRPPRLPRPRPRPPCAPRP | 0.497
RRIRTRPPRLPRPRPRPHRCPRP | -0.0268

Sequence | shrunken log2 fold change
RRIRFRPPRLPRPRPRPSANPRP | -0.395
RRIRERPPRLPRPRPRPAIKPRP | -0.656
RRIRSRPPRLPRPRPRPAHVPRP | -0.0302
RRIRNRPPRLPRPRPRPSGWPRP | -0.137
RRIRMRPPRLPRPRPRPFPMPRP | 0.237
RRIRGRPPRLPRPRPRPQICPRP | 0.156
RRIRFRPPRLPRPRPRPAVNPRP | -0.106
RRIRCRPPRLPRPRPRPPHTPRP | 0.824
RRIRTRPPRLPRPRPRPWSEPRP | -0.364
RRIRFRPPRLPRPRPRPAKSPRP | -0.135
RRIRYRPPRLPRPRPRPSESPRP | -0.0299
RRIRWRPPRLPRPRPRPMYPPRP | -0.245
RRIRYRPPRLPRPRPRPGHMPRP | -0.195
RRIRWRPPRLPRPRPRPMLPPRP | -0.0127
RRIRHRPPRLPRPRPRPDSDPRP | 0.0112
RRIRSRPPRLPRPRPRPPAQPRP | 0.922
RRIRWRPPRLPRPRPRPGQTPRP | -0.0122
RRIRHRPPRLPRPRPRPCEVPRP | -0.00674
RRIRKRPPRLPRPRPRPGFVPRP | 0.259
RRIRERPPRLPRPRPRPSSAPRP | 0.0581
RRIRWRPPRLPRPRPRPEQHPRP | 0.339
RRIRMRPPRLPRPRPRPNRIPRP | -0.18
RRIRARPPRLPRPRPRPWVMPRP | -0.156
RRIRPRPPRLPRPRPRPSRIPRP | -0.0841
RRIRWRPPRLPRPRPRPYAVPRP | 0.0097
